# Measured values from patent US20160297883A1, “G-PROTEIN COUPLED RECEPTOR AGONISTS AND METHODS” (Innovative Targeting Solutions, Inc., priority 2013, published 2016).
# Molecular target: T1, GLP1R (Homo sapiens, UniProt P43220, A316G/L260F)
# T1 construct: host or cells: HuTARG cells (engineered HEK293), subclone L696 / L696.19
# Assay: cAMP-responsive CD19 surface reporter assay in HuTARG-L696 GLP1R reporter cell line (FACS)
# Type: cell-based
# Text: HuTARG™ cells, which are HEK293 cells engineered to be capable of de novo antibody generation, were used to generate the reporter cell line. HuTARG™ cells have been stably transfected with expression cassettes for RAG1 and RAG-2 and Tdt. RAG-1 expression is inducible as the gene has been placed downstream of a Tet inducible promoter. HuTARG™ cells have also been stably transfected with a plasmid containing a LoxP site for subsequent insertion of V(D)J substrates.
# HuTARG™ cells were modified to express the GLP1 receptor as well as express a reporter gene that was activated by cAMP. […]
# Depleted cells were subsequently expanded and depleted an additional time using the same protocol except using a Miltenyi LD magnetic column. […] Single cell clones confirmed to have minimal CD19 expression in the absence of ligand were evaluated for induction of CD19 in the presence of 10 nM Exendin and the L696 subclone was selected. […]
# The peptide-grafted antibody, ITS007-V107, was subsequently cloned and expressed as a single-domain VH-IgG antibody without CH1 or a light chain and it was confirmed that the peptide-grafted heavy chain was functional in this format as well (FIG. 12). […]
# ITS007-V125 was cloned into a secretion vector, expressed and purified. […] The next day, binding and the percentage of cells expressing the surface marker were determined by FACS.
# T1 sequence (P43220 24-463 L260F/A316G): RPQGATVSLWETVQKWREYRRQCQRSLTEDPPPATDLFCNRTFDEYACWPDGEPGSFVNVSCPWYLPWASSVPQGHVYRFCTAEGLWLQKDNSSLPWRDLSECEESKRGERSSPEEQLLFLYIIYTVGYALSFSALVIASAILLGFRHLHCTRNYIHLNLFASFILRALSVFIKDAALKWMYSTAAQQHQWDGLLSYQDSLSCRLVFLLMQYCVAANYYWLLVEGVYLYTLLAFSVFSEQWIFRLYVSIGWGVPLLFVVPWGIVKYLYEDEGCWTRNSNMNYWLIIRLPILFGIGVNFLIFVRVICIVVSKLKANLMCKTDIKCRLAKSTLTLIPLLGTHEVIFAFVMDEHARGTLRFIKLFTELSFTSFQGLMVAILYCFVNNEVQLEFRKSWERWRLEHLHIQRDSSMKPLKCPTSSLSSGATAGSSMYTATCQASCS
substance,measurement,setting,value
Exendin-4 [reference compound],induction of CD19 expression,"10 nM, 24 hours, L696 cell line",CD19 expression is specifically induced
same,percentage of cells showing CD19 expression,"50 nM, 48 hours incubation with reporter line",approximately 8%
